Article PMC8041783, “A positive charge region of Salmonella FliI is required for ATPase formation and efficient flagellar protein export” (Communications Biology, 2021)
Numbering of substitutions follows the chain as printed. Names and notes keep the numbering of the source.

B1: His-FliI(R26A/R27A/R33A/R76A/R93A) (enzyme)
chain: MTTRLTRWLTALDNFEAKMALLPAVAAYGRLTAATGLVLEATGLQLPLGATCIIERQDGPETKEVESEVVGFNGQALFLMPLEEVEGILPGAAVYARNGHGDGLQSGKQLPLGPALLGRVLDGGGKPLDGLPAPDTLETGALITPPFNPLQRTPIEHVLDTGVRAINALLTVGRGQRMGLFAGSGVGKSVLLGMMARYTRADVIVVGLIGERGREVKDFIENILGPDGRARSVVIAAPADVSPLLRMQGAAYATRIAEDFRDRGQHVLLIMDSLTRYAMAQREIALAIGEPPATKGYPPSVFAKLPALVERAGNGIHGGGSITAFYTVLTEGDDQQDPIADSARAILDGHIVLSRRLAEAGHYPAIDIEASISRAMTALITEQHYARVRLFKQLLSSFQRNRDLVSVGAYAKGSDPMLDKAITLWPQLEAFLQQGIFERADWEDSLQALDLIFPTV
notes: FliI of Salmonella enterica, UniProt P26465, with R26A/R27A/R33A/R76A/R93A; also called FliI-5A; His-FliI-5A; source: S. enterica SJW1368, pTrc99A-based plasmid co-expressing FliH; in lysate (Ni pull-down) and purified (Ni-NTA, then SEC to remove FliH)
B2: His-FliI(R26A/R27A/R33A) (enzyme)
chain: B1 chain with A76R, A93R
notes: FliI of Salmonella enterica, UniProt P26465, with R26A/R27A/R33A; also called FliI-3A; His-FliI-3A; source: E. coli BL21 (DE3) Star, pET19b-based plasmid, purified (Ni-NTA, Superdex 200 SEC)
B3: His-FliI(R26A/R27A/R33A/R76A) (enzyme)
chain: B1 chain with A93R
notes: FliI of Salmonella enterica, UniProt P26465, with R26A/R27A/R33A/R76A; also called FliI-4A; His-FliI-4A; source: S. enterica SJW1368, pTrc99A-based plasmid co-expressing FliH; in lysate (Ni pull-down) and purified (Ni-NTA, then SEC to remove FliH)

Legend:
[1] = molecular target: the molecule itself; assay: negative-stain electron microscopy; purified FliI 1 μM in 50 mM Tris-HCl pH 8.0, 113 mM NaCl, 0.8 mM EDTA, 1 mM DTT with 5 mM MgCl2, 5 mM ADP, 5 mM AlCl3, 15 mM NaF, 20 min at room temperature; uranyl acetate stain; reference-free 2D class averages (RELION); monomers to hexameric ring
GST-FliJ = molecular target: T1, GST-FliJ (Salmonella enterica, UniProt P0A1K1 1-147); assay: pull-down; GST affinity chromatography: purified His-FliI or His-FliI-5A mixed with purified GST or GST fusions, dialysed overnight against PBS at 4 °C; Glutathione Sepharose 4B; wash 10 ml PBS; elution with 10 mM reduced glutathione; CBB and anti-FliI immunoblot; settings: both partners purified
T1 construct: FliJ of Salmonella enterica; source: S. enterica SJW1368, purified (Glutathione Sepharose 4B)
T1 sequence (P0A1K1 whole entry, the tested form may be a part): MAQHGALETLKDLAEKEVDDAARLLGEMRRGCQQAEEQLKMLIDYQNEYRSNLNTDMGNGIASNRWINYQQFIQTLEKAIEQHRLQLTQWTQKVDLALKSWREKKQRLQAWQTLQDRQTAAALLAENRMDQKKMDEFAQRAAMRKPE

| Binder | stoichiometry N [1] | binding result (GST-FliJ) |
| --- | --- | --- |
| B1 | 6 | binds |
| B2 | ~6 | – |
| B3 | 6 | – |
